# Experimental data: patent publication US20040235710A1, “Pre-mixes of glp-1 and basal insulin” (published 2004)
# No end group written: not given here.
# Biological target: T1, human GLP-1 receptor (human, UniProt P43220)
# Experiment: cell-based or functional assay
row,Binder,GLP-1 Receptor Activation (relative to GLP-1(7-37)OH) [relative potency]
1,HVEGTFTSDVSSYLEEQAAKEFIAWLVKGR-NH2 [Val^8-Glu^22-GLP-1(7-36)NH2],1
2,HVEGTFTSDVSSYLEKQAAKEFIAWLVKGR-NH2 [Val^8-Lys^22-GLP-1(7-36)NH2],0.53
3,HVEGTFTSDVSSYLEGQAAKEFIAWLVKGGP-NH2 [Val^8-Gly^36-Pro^37-GLP-1(7-37)NH2],0.53
4,HVEGTFTSDVSSYLEEKAAKEFIAWLVKGRG [Val^8-Glu^22-Lys^23-GLP-1(7-37)OH],1.43
5,HVEGTFTSDESSYLEGQAAKEFIAWLVKGRG [Val^8-Glu^16-GLP-1(7-37)OH],0.047
6,HVEGTFTSDVSSYLEKQAAKEFIAWLVKGRG [Val^8-Lys^22-GLP-1(7-37)OH],0.58
7,HVEGTFTSDASSYLEGQAAKEFIAWLVKGRG [Val^8-Ala^16-GLP-1(7-37)OH],0.112
8,HVEGTFTSDVSSYLEPQAAKEFIAWLVKGRG [Val^8-Pro^22-GLP-1(7-37)OH],0.01
9,HVEGTFTSDVSSYLEAQAAKEFIAWLVKGRG [Val^8-Ala^22-GLP-1(7-37)OH],0.56
10,HVEGTFTSDVSSYLESQAAKEFIAWLVKGRG [Val^8-Ser^22-GLP-1(7-37)OH],0.5
11,HVEGTFTSDVSSYLEHQAAKEFIAWLVKGRG [Val^8-His^22-GLP-1(7-37)OH],0.14
12,HVEGTFTSDVSSYLEDQAAKEFIAWLVKGRG [Val^8-Asp^22-GLP-1(7-37)OH],0.4
13,HVEGTFTSDVSSYLEEQAAKEFIAWLVKGRG [Val^8-Glu^22-GLP-1(7-37)OH],1.29
14,HVEGTFTSDVSSYKEGQAAKEFIAWLVKGRG [Val^8-Lys^20-GLP-1(7-37)OH],0.33
15,HVEGTFTSDVSSYLEGQAAKEFIHWLVKGRG [Val^8-His^30-GLP-1(7-37)OH],0.19
16,HVEGTFTSDVSSYLEGQAAKEFIAWLVKHRG [Val^8-His^35-GLP-1(7-37)OH],0.41
17,HVEGTFTSDVSSYLEGQAAKHFIAWLVKGRG [Val^8-His^27-GLP-1(7-37)OH],0.37
18,HVEGTFTSDVSSYLEGQKAKEFIAWLVKGRG [Val^8-Lys^24-GLP-1(7-37)OH],0.02
19,HVEGTFTSDVSSYLEGQAAKEFISWLVKGRG [Val^8-Ser^30-GLP-1(7-37)OH],0.19
20,HVEGTFTSDVSSYLEGQAAKEFIAWLVGKRG [Val^8-Gly^34-Lys^35-GLP-1(7-37)OH],0.34
21,HVEGKFTSDVSSYLEGQAAKEFIAWLVKGRG [Val^8-Lys^11-GLP-1(7-37)OH],0.001
22,HVEGTFTSDVSSYLEGQAAKEFIAWLVKGHG [Val^8-His^36-GLP-1(7-37)OH],0.22
23,HVEGTFTSDVSSYLEGQAAKEFIAWLVKGEG [Val^8-Glu^36-GLP-1(7-37)OH],0.11

row,Binder,GLP-1 Receptor Activation (relative to GLP-1(7-37)OH) [relative potency]
1,HVEGAFTSDVSSYLEGQAAKEFIAWLVKGRG [Val^8-Ala^11-GLP-1(7-37)OH],0.021
2,HVEGTFTSDVSSYLEGQAAKEFIDWLVKGRG [Val^8-Asp^30-GLP-1(7-37)OH],0.15
3,HVEGTFTSDVSSYLEGQAAEEFIAWLVKGRG [Val^8-Glu^26-GLP-1(7-37)OH],1.5
4,HVEGTFTSDVSSYLEGQAAKEFIAWLGKGRG [Val^8-Gly^33-GLP-1(7-37)OH],0.01
5,HGEGHFTSDVSSYLEGQAAKEFIAWLVKGRG [Gly^8-His^11-GLP-1(7-37)OH],0.282
6,HVEGTFTSDVSSYLEKEAAKEFIAWLVKGRG [Val^8-Lys^22-Glu^23-GLP-1(7-37)OH],0.35
7,HGEGTFTSDVSSYLEGQAAKEFIEWLVKGRG [Gly^8-Glu^30-GLP-1(7-37)OH],0.29
8,HAEGTFTSDVSSYLEQQAAKEFIAWLVKGRG [Gln^22-GLP-1(7-37)OH],0.42
9,HVEGTFTSDVSSYLEGQAAKEFIAWLEKGRG [Val^8-Glu^33-GLP-1(7-37)OH],0.039
10,HVEGTFTSDVSSYLEGQAAKEFIAWLVKPRG [Val^8-Pro^35-GLP-1(7-37)OH],0.094
11,HVEGTFTSDLSSYLEGQAAEEFIAWLVKGRG [Val^8-Leu^16-Glu^26-GLP-1(7-37)OH],0.23
12,HVEGTFTSDVSSYLEGKAAKEFIAWLVKGRG [Val^8-Lys^23-GLP-1(7-37)OH],0.18
13,HVEGTFTSDVSSYLEGQAAKEFIAWLKVGRG [Val^8-Lys^33-Val^34-GLP-1(7-37)OH],0.08
14,HVEGTFTSDVSSYLEGQAAHEFIAWLVKGRG [Val^8-His^26-GLP-1(7-37)OH],1.6
15,HVEGTFTSDVSSYLEGQAAKEFIEWLVKGRG [Val^8-Glu^30-GLP-1(7-37)OH],0.29
16,HVEGTFTSDVSSYLEGQAAKEFIAWLAKGRG [Val^8-Ala^33-GLP-1(7-37)OH],0.1
17,HVEGTFTSDVSSYLEGQAAKEFIAWLVKERG [Val^8-Glu^35-GLP-1(7-37)OH],0.15
18,HVEGTFTSDVSSYLEGQHAKEFIAWLVKGRG [Val^8-His^24-GLP-1(7-37)OH],0.007
19,HVEGTFTSDVSSYLEGQAAKEFIAWLVEGRG [Val^8-Glu^34-GLP-1(7-37)OH],0.17
20,HVEGTFTSDVSSYLEKQAAKEFIEWLVKGRG [Val^8-Lys^22-Glu^30-GLP-1(7-37)OH],0.37
21,HVEGTFTSDVSSYLEGQAAKEFIAWLVKGRH [Val^8-His^37-GLP-1(7-37)OH],0.33
22,HVEGTFTSDVSSYLEGQAAKEFIAWLKNGRG [Val^8-Lys^33-Asn^34-GLP-1(7-37)OH],0.09

# Biological target: T1, human GLP-1 receptor
# Experiment: cell-based or functional assay
# Remark: another data set of the same source
row,Binder,GLP-1 receptor activation relative to Val^8-GLP-1(7-37)OH [relative potency]
1,HVEGTYTSDVSSYLEGQAAKEFIAWLVKGR-NH2 [Val^8-Tyr^12-GLP-1(7-36)NH2],1.1
2,HVEGTFTSDWSSYLEEQAVKEFIAWLVKGRG [Val^8-Trp^16-Glu^22-Val^25-GLP-1(7-37)OH],4.4
3,HVEGTYTSDVSSYLEEQAAKEFIAWLVKGRG [Val^8-Tyr^12-Glu^22-GLP-1(7-37)OH],2.7
4,HVEGTFTSDLSSYLEGQAAKEFIAWLVKGRG [Val^8-Leu^16-GLP-1(7-37)OH],1.1
5,HVEGTFTSDVSSYLEGQALKEFIAWLVKGRG [Val^8-Leu^25-GLP-1(7-37)OH],0.5
6,HVEGTWTSDVSSYLEEQAAKEFIAWLVKGRG [Val^8-Trp^12-Glu^22-GLP-1(7-37)OH],1.7
7,HVEGTFTSDLSSYLEEQAAKEFIAWLVKGRG [Val^8-Leu^16-Glu^22-GLP-1(7-37)OH],4.3
8,HGEGTFTSDVSSYLEGQAAKEFIAWLVKGRG [Gly^8-GLP-1(7-37)OH],1.7
9,HVEGTWTSDVSSYLEGQAAKEFIAWLVKGRG [Val^8-Trp^12-GLP-1(7-37)OH],1.1
10,HVEGTYTSDYSSYLEGQAAKEFIAWLVKGRG [Val^8-Tyr^12-Tyr^16-GLP-1(7-37)OH],1.5
11,HVEGTFTSDYSSFLEGQAAKEFIAWLVKGRG [Val^8-Tyr^16-Phe^19-GLP-1(7-37)OH],2.8
